Patent US20250154277A1 (CONCEPT TO MEDICINE BIOTECH, published 2025)

B1: Hu14G12-33 (antibody, V domains shown)
VH: QVQLVQSGAEVKKPGASVKVSCKASGYAFSSSWMNWVRQAPGQGLEWMGRIYREDGHTNYNGKFKGRVTMTADKSTTTAYMELSSLRSEDTAVYYCANGGAMDYWGQGTLVTVSS
VL: DIQMTQSPSSLSASVGDRVTITCRASQDISNYLNWYQQKPGKAPKLLIYYTSRLHSGVPSRFSGSGSGTDYTFTISSLQPEDIATYFCQQDNTLPWTFGGGTKVEIK
notes: humanized
B2: Hu14G12-36 (antibody, V domains shown)
VH: QVQLVQSGAEVKKPGASVKVSCKASGYAFSSSWMNWVRQAPGQGLEWMGRIYREDGHTNYNGKFKGRVTMTADKSTTTAYMELSSLRSEDTAVYYCANGGAMDYWGQGTLVTVSS
VL: DIVMTQSPDSLAVSLGERATINCRASQDISNYLNWYQQKPGQPPKLLIYYTSRLHSGVPDRFSGSGSGTDYTLTISSLQAEDIAVYFCQQDNTLPWTFGGGTKVEIK
notes: humanized
B3: Hu14G12-22 (antibody, V domains shown)
VH: QVQLVQSGAEVKKPGSSVKVSCKASGGTFSSSWMNWVKQAPGQGLEWIGRIYREDGHTNYNGKFKGRATITADKSTSTAYMELSSLRSEDTAVYFCANGGAMDYWGQGTTVTVSS
VL: DIQMTQSPSSLSASVGDRVTITCRASQDISNYLNWYQQKPGKVPKLLIYYTSRLHSGVPSRFSGSGSGTDYTLTISSLQPEDVATYFCQQDNTLPWTFGGGTKLEIK
notes: humanized
B4: Hu14G12-21 (antibody, V domains shown)
VH: QVQLVQSGAEVKKPGSSVKVSCKASGGTFSSSWMNWVKQAPGQGLEWIGRIYREDGHTNYNGKFKGRATITADKSTSTAYMELSSLRSEDTAVYFCANGGAMDYWGQGTTVTVSS
VL: DIQMTQSPSSLSASVGDRVTITCRASQDISNYLNWYQQKPGKVPKLLIYYTSRLHSGVPSRFSGSGSGTDFTLTISSLQPEDVATYYCQQDNTLPWTFGGGTKLEIK
notes: humanized
B5: Hu14G12-35 (antibody, V domains shown)
VH: QVQLVQSGAEVKKPGASVKVSCKASGYAFSSSWMNWVRQAPGQGLEWMGRIYREDGHTNYNGKFKGRVTMTADKSTTTAYMELSSLRSEDTAVYYCANGGAMDYWGQGTLVTVSS
VL: EIVMTQSPATLSLSPGERATLSCRASQDISNYLNWYQQKPGQAPRLLIYYTSRLHSGIPARFSGSGSGTDYTLTISSLEPEDIAVYFCQQDNTLPWTFGGGTKVEIK
notes: humanized
B6: Hu14G12-19 (antibody, V domains shown)
VH: QVQLVQSGAEVKKPGSSVKVSCKASGGTFSSSWMNWVKQAPGQGLEWIGRIYREDGHTNYNGKFKGRATLTADKSTSTAYMELSSLRSEDTAVYFCANGGAMDYWGQGTTVTVSS
VL: DIQMTQSPSSLSASVGDRVTITCRASQDISNYLNWYQQKPGKVPKLLIYYTSRLHSGVPSRFSGSGSGTDFTLTISSLQPEDVATYYCQQDNTLPWTFGGGTKLEIK
notes: humanized
B7: Hu14G12-20 (antibody, V domains shown)
VH: QVQLVQSGAEVKKPGSSVKVSCKASGGTFSSSWMNWVKQAPGQGLEWIGRIYREDGHTNYNGKFKGRATLTADKSTSTAYMELSSLRSEDTAVYFCANGGAMDYWGQGTTVTVSS
VL: DIQMTQSPSSLSASVGDRVTITCRASQDISNYLNWYQQKPGKVPKLLIYYTSRLHSGVPSRFSGSGSGTDYTLTISSLQPEDVATYFCQQDNTLPWTFGGGTKLEIK
notes: humanized
B8: Hu14G12-17 (antibody, V domains shown)
VH: QVQLVQSGAEVKKPGSSVKVSCKASGGTFSSSWMNWVKQAPGQGLEWIGRIYREDGHTNYNGKFKGKATLTADKSTSTAYMELSSLRSEDTAVYFCANGGAMDYWGQGTTVTVSS
VL: DIQMTQSPSSLSASVGDRVTITCRASQDISNYLNWYQQKPGKVPKLLIYYTSRLHSGVPSRFSGSGSGTDFTLTISSLQPEDVATYYCQQDNTLPWTFGGGTKLEIK
notes: humanized
B9: Hu14G12-25 (antibody, V domains shown)
VH: QVQLVQSGAEVKKPGSSVKVSCKASGYAFSSSWMNWVRQAPGQGLEWMGRIYREDGHTNYNGKFKGRVTITADKSTTTAYMELSSLRSEDTAVYYCANGGAMDYWGQGTLVTVSS
VL: EIVMTQSPATLSLSPGERATLSCRASQDISNYLNWYQQKPGQAPRLLIYYTSRLHSGIPARFSGSGSGTDYTLTISSLEPEDIAVYFCQQDNTLPWTFGGGTKVEIK
notes: humanized
B10: Hu14G12-38 (antibody, V domains shown)
VH: QVQLVQSGAEVKKPGASVKVSCKASGYAFSSSWMNWVRQAPGQRLEWMGRIYREDGHTNYNGKFKGRVTITADKSATTAYMELSSLRSEDTAVYYCANGGAMDYWGQGTLVTVSS
VL: DIQMTQSPSSLSASVGDRVTITCRASQDISNYLNWYQQKPGKAPKLLIYYTSRLHSGVPSRFSGSGSGTDYTFTISSLQPEDIATYFCQQDNTLPWTFGGGTKVEIK
notes: humanized
B11: Hu14G12-39 (antibody, V domains shown)
VH: QVQLVQSGAEVKKPGASVKVSCKASGYAFSSSWMNWVRQAPGQRLEWMGRIYREDGHTNYNGKFKGRVTITADKSATTAYMELSSLRSEDTAVYYCANGGAMDYWGQGTLVTVSS
VL: DIQMTQSPSSLSASVGDRVTITCRASQDISNYLNWYQQKPGKAPKLLIYYTSRLHSGVPSRFSGSGSGTDYTLTISSLQPEDIATYFCQQDNTLPWTFGGGTKVEIK
notes: humanized
B12: Hu14G12-31 (antibody, V domains shown)
VH: QVQLVQSGAEVKKPGASVKVSCKASGYAFSSSWMNWVRQAPGQGLEWMGRIYREDGHTNYNGKFKGRVTMTADKSITTAYMELSRLRSDDTAVYYCANGGAMDYWGQGTLVTVSS
VL: DIVMTQSPDSLAVSLGERATINCRASQDISNYLNWYQQKPGQPPKLLIYYTSRLHSGVPDRFSGSGSGTDYTLTISSLQAEDIAVYFCQQDNTLPWTFGGGTKVEIK
notes: humanized
B13: Hu14G12-30 (antibody, V domains shown)
VH: QVQLVQSGAEVKKPGASVKVSCKASGYAFSSSWMNWVRQAPGQGLEWMGRIYREDGHTNYNGKFKGRVTMTADKSITTAYMELSRLRSDDTAVYYCANGGAMDYWGQGTLVTVSS
VL: EIVMTQSPATLSLSPGERATLSCRASQDISNYLNWYQQKPGQAPRLLIYYTSRLHSGIPARFSGSGSGTDYTLTISSLEPEDIAVYFCQQDNTLPWTFGGGTKVEIK
notes: humanized
B14: Hu14G12-45 (antibody, V domains shown)
VH: QVQLVQSGAEVKKPGASVKVSCKASGYAFSSSWMNWVRQAPGQGLEWMGRIYREDGHTNYNGKFKGRVTMTADKSTTTAYMELRSLRSDDTAVYYCANGGAMDYWGQGTLVTVSS
VL: EIVMTQSPATLSLSPGERATLSCRASQDISNYLNWYQQKPGQAPRLLIYYTSRLHSGIPARFSGSGSGTDYTLTISSLEPEDIAVYFCQQDNTLPWTFGGGTKVEIK
notes: humanized
B15: Hu14G12-40 (antibody, V domains shown)
VH: QVQLVQSGAEVKKPGASVKVSCKASGYAFSSSWMNWVRQAPGQRLEWMGRIYREDGHTNYNGKFKGRVTITADKSATTAYMELSSLRSEDTAVYYCANGGAMDYWGQGTLVTVSS
VL: EIVMTQSPATLSLSPGERATLSCRASQDISNYLNWYQQKPGQAPRLLIYYTSRLHSGIPARFSGSGSGTDYTLTISSLEPEDIAVYFCQQDNTLPWTFGGGTKVEIK
notes: humanized
B16: Hu14G12-27 (antibody, V domains shown)
VH: QVQLVQSGAEVKKPGSSVKVSCKASGYAFSSSWMNWVRQAPGQGLEWMGRIYREDGHTNYNGKFKGRVTITADKSTTTAYMELSSLRSEDTAVYYCANGGAMDYWGQGTLVTVSS
VL: DIQMTQSPSTLSASVGDRVTITCRASQDISNYLNWYQQKPGKAPKLLIYYTSRLHSGVPSRFSGSGSGTEYTLTISSLQPDDIATYFCQQDNTLPWTFGGGTKVEIK
notes: humanized
B17: Hu14G12-34 (antibody, V domains shown)
VH: QVQLVQSGAEVKKPGASVKVSCKASGYAFSSSWMNWVRQAPGQGLEWMGRIYREDGHTNYNGKFKGRVTMTADKSTTTAYMELSSLRSEDTAVYYCANGGAMDYWGQGTLVTVSS
VL: DIQMTQSPSSLSASVGDRVTITCRASQDISNYLNWYQQKPGKAPKLLIYYTSRLHSGVPSRFSGSGSGTDYTLTISSLQPEDIATYFCQQDNTLPWTFGGGTKVEIK
notes: humanized
B18: Hu14G12-42 (antibody, V domains shown)
VH: QVQLVQSGAEVKKPGASVKVSCKASGYAFSSSWMNWVRQAPGQRLEWMGRIYREDGHTNYNGKFKGRVTITADKSATTAYMELSSLRSEDTAVYYCANGGAMDYWGQGTLVTVSS
VL: DIQMTQSPSTLSASVGDRVTITCRASQDISNYLNWYQQKPGKAPKLLIYYTSRLHSGVPSRFSGSGSGTEYTLTISSLQPDDIATYFCQQDNTLPWTFGGGTKVEIK
notes: humanized
B19: Hu14G12-24 (antibody, V domains shown)
VH: QVQLVQSGAEVKKPGSSVKVSCKASGYAFSSSWMNWVRQAPGQGLEWMGRIYREDGHTNYNGKFKGRVTITADKSTTTAYMELSSLRSEDTAVYYCANGGAMDYWGQGTLVTVSS
VL: DIQMTQSPSSLSASVGDRVTITCRASQDISNYLNWYQQKPGKAPKLLIYYTSRLHSGVPSRFSGSGSGTDYTLTISSLQPEDIATYFCQQDNTLPWTFGGGTKVEIK
notes: humanized
B20: Hu14G12-26 (antibody, V domains shown)
VH: QVQLVQSGAEVKKPGSSVKVSCKASGYAFSSSWMNWVRQAPGQGLEWMGRIYREDGHTNYNGKFKGRVTITADKSTTTAYMELSSLRSEDTAVYYCANGGAMDYWGQGTLVTVSS
VL: DIVMTQSPDSLAVSLGERATINCRASQDISNYLNWYQQKPGQPPKLLIYYTSRLHSGVPDRFSGSGSGTDYTLTISSLQAEDIAVYFCQQDNTLPWTFGGGTKVEIK
notes: humanized

Target: T1, human 5T4-His protein (human, UniProt Q13641 32-355)
T1 construct: also called recombinant 5T4 protein (human 5T4-his tag); human 5T4 protein; not shown: His tag
T1 sequence (looked up): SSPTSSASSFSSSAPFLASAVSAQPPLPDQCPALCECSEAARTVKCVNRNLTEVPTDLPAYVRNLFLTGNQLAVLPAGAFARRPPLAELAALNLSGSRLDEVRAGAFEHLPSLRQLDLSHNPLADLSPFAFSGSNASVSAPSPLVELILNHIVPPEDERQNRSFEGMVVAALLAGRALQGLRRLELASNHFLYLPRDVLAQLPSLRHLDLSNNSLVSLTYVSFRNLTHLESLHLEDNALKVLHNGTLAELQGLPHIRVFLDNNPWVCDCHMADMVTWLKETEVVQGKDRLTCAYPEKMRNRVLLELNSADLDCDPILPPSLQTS
Test: ELISA, coated 5T4-His
Description: To evaluate the binding activity of 14G12 humanized antibodies to human 5T4, the 14G12 chimeric antibody along with 14G12 humanized mAbs were subjected to ELISA test.
Briefly, microtiter plates were coated with human 5T4-His protein at 1 μg/ml in PBS, 100 μl/well at 4° C. overnight, then blocked with […]. Serial dilutions of antibodies were added to each well and incubated for 1 hour at 37° C. The plates were washed with PBS/Tween and then incubated with Goat Anti-Human IgG-HRP for 30 mins at 37° C. After washing, the plates were developed with TMB substrate and analyzed by spectrophotometer at OD 450 nm. As shown in FIG. 10 and Table 6, most of the humanized antibodies bound to human 5T4 at high activity.

Q: With B1 as the binder, how does the EC50 read?
A: Its EC50 is 11 ng/mL.

Q: With B2 as the binder, how does the EC50 read?
A: The EC50 was 6.8 ng/mL.

Q: How did the EC50 turn out when B3 was run?
A: Its EC50 is 450 ng/mL.

Q: Which EC50 does the source give for B4 here?
A: Its EC50 is 400 ng/mL.

Q: Which EC50 does the source give for B5 here?
A: Its EC50 is 13 ng/mL.

Q: For B6, which EC50 is on record?
A: Its EC50 is 400 ng/mL.

Q: For B7, which EC50 is on record?
A: Its EC50 is 320 ng/mL.

Q: With B8 as the binder, how does the EC50 read?
A: Its EC50 is 520 ng/mL.

Q: B9 was tested. Which EC50 did it give?
A: Its EC50 is 6 ng/mL.

Q: With B10 as the binder, how does the EC50 read?
A: Its EC50 is 6.4 ng/mL.

Q: How did the EC50 turn out when B11 was run?
A: Its EC50 is 6.9 ng/mL.

Q: For B12, which EC50 is on record?
A: The EC50 was 8.4 ng/mL.

Q: For B13, which EC50 is on record?
A: The EC50 was 10 ng/mL.

Q: For B14, which EC50 is on record?
A: Its EC50 is 8.2 ng/mL.

Q: Which EC50 does the source give for B15 here?
A: Its EC50 is 28 ng/mL.

Q: Which EC50 does the source give for B16 here?
A: Its EC50 is 7.8 ng/mL.

Q: How did the EC50 turn out when B17 was run?
A: Its EC50 is 8.7 ng/mL.

Q: For B18, which EC50 is on record?
A: Its EC50 is 7.8 ng/mL.

Q: How did the EC50 turn out when B19 was run?
A: Its EC50 is 4.9 ng/mL.

Q: How did the EC50 turn out when B20 was run?
A: Its EC50 is 6.9 ng/mL.
